Experimental data published in the supplement of paper PMC7877785.
± gives the uncertainty stated by the source.

Experiment: self-splicing fitness, log relative to wild type (ln ratio); higher = more splicing; Tetrahymena group I intron in knt gene, E. coli kanamycin selection, DiMSum; sequences stand for … in CUCUCU…GGAGGGAAAAGUUAUCAGGCAUGCACCUGGUAGCUAGUCUUUAAACCAAUAGAUUGCAUCGGUUUAAAAGGCAAGACCGUCAAAUUGCGGGAAAGGGGUCAACAGCCGUUCAGUACCAAGUCUCAGGGGAAACUUUGAGAUGGCCUUGCAAAGGGUAUGGUAAUAAGCUGACGGACAUGGUCCUAACCACGCAGCCAAGUCCUAAGUCAACAGAUCUUCUGUUGAUAUGGAUGCAGUUCACAGACUAAAUGUCGGUCGGGGAAGAUGUAUUCUUCUCAUAAGAUAUAGUCGGACCUCUCCUUAAUGGGAGCUAGCGGAUGAAGUGAUGCAACACUGGAGCCGCUGGGAACUAAUUUGUAUGCGAAAGUAUAUUGAUUAGUUUUGGAGUACUCGUGGUCG
Procedure, shortened: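 DiMSum derived fitness as the error-weighted combination of fold changes across replicates, kanamycin versus no kanamycin, normalised to wild type. E. coli BL21(DE3) held the library, which randomised all eight P1ex-region intron nucleotides within the knt kanamycin-resistance gene on pET-22b(+). Six replicate transformations grew overnight at 37°C or 30°C on LB agar with or without 25 μg/mL kanamycin, also containing 100 μg/mL carbenicillin, 50 μM IPTG and 0.2% rhamnose, and pooled colonies were amplicon-sequenced on an Illumina HiSeq 2500.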

| Sequence | self-splicing fitness (ln) (30 °C) | self-splicing fitness (ln) (37 °C) |
| --- | --- | --- |
| CAUCAGCAAUAUUACGUAUU | -2.15 ± 0.097 | -1.65 ± 0.11 |
| CAUCAGCAAUAUUACGUCAG | -0.52 ± 0.062 | 0.43 ± 0.092 |
| CAUCAGCAAUAUUACGUCCC | -2.53 ± 0.31 | -1.39 ± 0.27 |
| CAUCAGCAAUAUUACGUCCG | -0.619 ± 0.059 | 0.497 ± 0.088 |
| CAUCAGCAAUAUUACGUGAU | -2.78 ± 0.078 | -0.987 ± 0.086 |
| CAUCAGCAAUAUUACGUGGG | -1.9 ± 0.075 | -1.71 ± 0.1 |
| CAUCAGCAAUAUUACGUUAA | -2.79 ± 0.16 | -1.85 ± 0.17 |
| CAUCAGCAAUAUUACGUUUA | -1.36 ± 0.086 | -1.36 ± 0.094 |
| CAUGAGCAAUAUUACGAAGA | – | -2.3 ± 0.26 |
| CAUGAGCAAUAUUACGAGAA | -0.549 ± 0.29 | – |
| CAUGAGCAAUAUUACGAGAG | -3.22 ± 0.16 | -3.27 ± 0.23 |
| CAUGAGCAAUAUUACGAUAA | -3.72 ± 0.35 | -1.97 ± 0.3 |
| CAUGAGCAAUAUUACGAUUU | -2.51 ± 0.15 | -2.15 ± 0.2 |
| CAUGAGCAAUAUUACGCCGG | -3.79 ± 0.22 | -2.14 ± 0.26 |
| CAUGAGCAAUAUUACGCGCU | -3.58 ± 0.42 | -2.21 ± 0.4 |
| CAUGAGCAAUAUUACGCUCA | -3.35 ± 0.17 | -2.18 ± 0.18 |
| CAUGAGCAAUAUUACGCUCU | -3.71 ± 0.49 | -2.82 ± 0.31 |
| CAUGAGCAAUAUUACGGAGU | -4.1 ± 0.4 | -3.1 ± 0.31 |
| CAUGAGCAAUAUUACGGCUA | -2.75 ± 0.45 | -1.87 ± 0.2 |
| CAUGAGCAAUAUUACGGGUC | -2.75 ± 0.25 | -2.75 ± 0.27 |
| CAUGAGCAAUAUUACGGUAU | -4 ± 0.39 | -3.54 ± 0.33 |
| CAUGAGCAAUAUUACGGUGA | -1.91 ± 0.35 | -2.8 ± 0.44 |
| CAUGAGCAAUAUUACGGUUU | -3.52 ± 0.2 | -3.01 ± 0.24 |
| CAUGAGCAAUAUUACGUAAA | -3.16 ± 0.15 | -3.43 ± 0.32 |
| CAUGAGCAAUAUUACGUAGU | -5.58 ± 0.41 | -3.3 ± 0.19 |

| Sequence | self-splicing fitness (ln) (30 °C) | self-splicing fitness (ln) (37 °C) |
| --- | --- | --- |
| CAUGAGCAAUAUUACGUAUG | -2.65 ± 0.21 | -2.65 ± 0.22 |
| CAUGAGCAAUAUUACGUCAC | -3.36 ± 0.36 | – |
| CAUGAGCAAUAUUACGUCCG | -0.682 ± 0.079 | -0.331 ± 0.1 |
| CAUGAGCAAUAUUACGUCGU | -3.75 ± 0.18 | -3.34 ± 0.19 |
| CAUGAGCAAUAUUACGUGGA | -3.96 ± 0.47 | -3 ± 0.38 |
| CAUGAGCAAUAUUACGUGGU | -3.53 ± 0.18 | -2.49 ± 0.16 |
| CAUGAGCAAUAUUACGUUGC | -2.57 ± 0.091 | -3.34 ± 0.2 |
| CAUUAGCAAUAUUACGAAAU | -3.12 ± 0.29 | -2.37 ± 0.28 |
| CAUUAGCAAUAUUACGAAGA | -3.8 ± 0.43 | -0.417 ± 0.23 |
| CAUUAGCAAUAUUACGAUAG | -0.405 ± 0.094 | -0.688 ± 0.11 |
| CAUUAGCAAUAUUACGCGAC | -3.58 ± 0.48 | – |
| CAUUAGCAAUAUUACGCUGC | -3.92 ± 0.28 | -2.43 ± 0.24 |
| CAUUAGCAAUAUUACGGAUC | -1.46 ± 0.12 | -1.6 ± 0.16 |
| CAUUAGCAAUAUUACGGCCU | -3.52 ± 0.18 | -2.21 ± 0.21 |
| CAUUAGCAAUAUUACGGGAA | – | -2.59 ± 0.41 |
| CAUUAGCAAUAUUACGGUAA | -2.31 ± 0.14 | -2.26 ± 0.14 |
| CAUUAGCAAUAUUACGGUUC | -3.48 ± 0.21 | -2.55 ± 0.23 |
| CAUUAGCAAUAUUACGUAAG | -0.138 ± 0.057 | 0.358 ± 0.074 |
| CAUUAGCAAUAUUACGUCAC | – | -1.63 ± 0.44 |
| CAUUAGCAAUAUUACGUCCU | -3.14 ± 0.18 | -1.38 ± 0.15 |
| CAUUAGCAAUAUUACGUGUC | – | -2.18 ± 0.24 |
| CAUUAGCAAUAUUACGUUAA | -2.87 ± 0.22 | -1.91 ± 0.2 |
| CAUUAGCAAUAUUACGUUUU | -4 ± 0.24 | -3.21 ± 0.24 |
| CCAAAGCAAUAUUACGAAAA | -1.93 ± 0.17 | -2.85 ± 0.32 |
| CCAAAGCAAUAUUACGAAAU | -3.31 ± 0.19 | -3.2 ± 0.28 |

| Sequence | self-splicing fitness (ln) (30 °C) | self-splicing fitness (ln) (37 °C) |
| --- | --- | --- |
| CCAAAGCAAUAUUACGACCA | -3.08 ± 0.34 | -1.78 ± 0.45 |
| CCAAAGCAAUAUUACGACGU | -3.76 ± 0.22 | -2.8 ± 0.21 |
| CCAAAGCAAUAUUACGAGUG | -0.346 ± 0.039 | -0.144 ± 0.058 |
| CCAAAGCAAUAUUACGCCAC | -3.59 ± 0.3 | -2.01 ± 0.47 |
| CCAAAGCAAUAUUACGCCCU | -3.49 ± 0.42 | -3.01 ± 0.27 |
| CCAAAGCAAUAUUACGCCUA | -4.18 ± 0.33 | -3.12 ± 0.35 |
| CCAAAGCAAUAUUACGCGUU | -3.79 ± 0.12 | -2.89 ± 0.16 |
| CCAAAGCAAUAUUACGCUCG | -1.97 ± 0.11 | -0.271 ± 0.12 |
| CCAAAGCAAUAUUACGCUGG | -4.28 ± 0.23 | -2.46 ± 0.17 |
| CCAAAGCAAUAUUACGGAGC | -3.3 ± 0.15 | -2.69 ± 0.19 |
| CCAAAGCAAUAUUACGGAUA | -2.87 ± 0.22 | -2.17 ± 0.31 |
| CCAAAGCAAUAUUACGGCCG | -0.467 ± 0.1 | -0.508 ± 0.12 |
| CCAAAGCAAUAUUACGGGAA | -3.01 ± 0.18 | -3.66 ± 0.3 |
| CCAAAGCAAUAUUACGGGGU | -3.24 ± 0.15 | -3.43 ± 0.23 |
| CCAAAGCAAUAUUACGGGUC | -4.39 ± 0.23 | -3.1 ± 0.22 |
| CCAAAGCAAUAUUACGUACG | -0.00591 ± 0.081 | 0.0861 ± 0.084 |
| CCAAAGCAAUAUUACGUAGC | -3.81 ± 0.16 | -2.48 ± 0.16 |
| CCAAAGCAAUAUUACGUCCA | -2.8 ± 0.26 | -2.19 ± 0.3 |
| CCAAAGCAAUAUUACGUCCU | -4.59 ± 0.31 | -2.33 ± 0.21 |
| CCAAAGCAAUAUUACGUGAG | -0.357 ± 0.049 | 0.0847 ± 0.073 |
| CCAAAGCAAUAUUACGUGCU | -4.12 ± 0.18 | -2.88 ± 0.18 |
| CCAAAGCAAUAUUACGUUCU | -3.78 ± 0.26 | -2.3 ± 0.23 |
| CCACAGCAAUAUUACGAAAC | -2.27 ± 0.29 | -1.8 ± 0.34 |
| CCACAGCAAUAUUACGAAAG | -1.55 ± 0.066 | -0.182 ± 0.082 |
| CCACAGCAAUAUUACGACGG | -3.63 ± 0.12 | -1.63 ± 0.1 |

| Sequence | self-splicing fitness (ln) (30 °C) | self-splicing fitness (ln) (37 °C) |
| --- | --- | --- |
| CCACAGCAAUAUUACGAGAU | -3.37 ± 0.14 | -1.65 ± 0.14 |
| CCACAGCAAUAUUACGAGCA | -3.6 ± 0.18 | -2.89 ± 0.19 |
| CCACAGCAAUAUUACGAUAG | -1.17 ± 0.065 | 0.206 ± 0.084 |
| CCACAGCAAUAUUACGAUGC | -3.7 ± 0.17 | -2.66 ± 0.21 |
| CCACAGCAAUAUUACGAUGG | -4.02 ± 0.14 | -2.5 ± 0.13 |
| CCACAGCAAUAUUACGCAGC | -3.88 ± 0.22 | -2.83 ± 0.25 |
| CCACAGCAAUAUUACGCCAA | -2.96 ± 0.2 | -2.1 ± 0.23 |
| CCACAGCAAUAUUACGCCAC | -3.52 ± 0.27 | -2.54 ± 0.27 |
| CCACAGCAAUAUUACGCCGC | -3.12 ± 0.21 | -3.49 ± 0.27 |
| CCACAGCAAUAUUACGCGGC | -3.19 ± 0.24 | -3.09 ± 0.35 |
| CCACAGCAAUAUUACGGACA | -3.12 ± 0.21 | -2.51 ± 0.18 |
| CCACAGCAAUAUUACGGAGG | -3.92 ± 0.22 | -1.16 ± 0.12 |
| CCACAGCAAUAUUACGGCAC | -4.06 ± 0.21 | -2.87 ± 0.22 |
| CCACAGCAAUAUUACGUAAC | -3.47 ± 0.2 | -1.35 ± 0.16 |
| CCACAGCAAUAUUACGUCAA | -2.92 ± 0.15 | -2.22 ± 0.21 |
| CCACAGCAAUAUUACGUCUA | -3.53 ± 0.24 | -2.43 ± 0.17 |
| CCACAGCAAUAUUACGUGCG | -2.79 ± 0.11 | -1.72 ± 0.12 |
| CCAGAGCAAUAUUACGCACC | – | -2.37 ± 0.34 |
| CCAGAGCAAUAUUACGCAGC | -3.64 ± 0.28 | -1.77 ± 0.24 |
| CCAGAGCAAUAUUACGCGGC | -3.88 ± 0.39 | -2.96 ± 0.24 |
| CCAGAGCAAUAUUACGCUGU | -3.95 ± 0.44 | – |
| CCAGAGCAAUAUUACGGAAG | -2.32 ± 0.13 | -2.1 ± 0.19 |
| CCAGAGCAAUAUUACGGCAC | -3.21 ± 0.32 | -2.73 ± 0.27 |
